This note sets out measurements from US20030017489.

The target in the data set is recombinant Histone H3.

B1: hCARM-1 (SEQ ID NO:9) (protein)
chain: MAAAAAAVGPGAGGAGSAVPGGAGPCATVSVFPGARLLTIGDANGEIQRHAEQQALRLEVRAGPDSAGIALYSHEDVCVFKCSVSRETECSRVGKQSFIITLGCNSVLIQFATPNDFCSFYNILKTCRGHTLERSVFSERTEESSAVQYFQFYGYLSQQQNMMQDYVRTGTYQRAILQNHTDFKDKIVLDVGCGSGILSFFAAQAGARKIYAVEASTMAQHAEVLVKSNNLTDRIVVIPGKVEEVSLPEQVDIIISEPMGYMLFNERMLESYLHAKKYLKPSGNMFPTIGDVHLAPFTDEQLYMEQFTKANFWYQPSFHGVDLSALRGAAVDEYFRQPVVDTFDIRILMAKSVKYTVNFLEAKEGDLHRIEIPFKFHMLHSGLVHGLAFWFDVAFIGSIMTVWLSTAPTEPLTHWYQVRCLFQSPLFAKAGDTLSGTCLLIANKRQSYDISIVAQVDQTGSKSSNLLDLKNPFFRYTGTTPSPPPGSHYTSPSENMWNTGSTYNLSSGMAVAGMPTAYDLSSVIASGSSVGHNNLIPLANTGIVNHTHSRMGSIMSTGIVQGSSGAQGSGGGSTSAHYAVNSQFTMGGPAISMASPMSIPTNTMHYGS
As for B1, the “methylation of Histone H3 (in vitro methylation reaction, SDS-PAGE, exposed to film)” value is reported as “Our experiments showed that hCARM-1 methylates Histone H3 efficiently”.
